Experimental data as given in patent US10174097B2, “Specific A-beta species-binding peptides for the therapy and/or diagnosis of Alzheimer's dementia” (Forschungszentrum Juelich GmbH, priority 2015, dated 2019).
[ ]: non-standard residue; d: D form. d(hArg) = N=C(N)NCCCC[C@@H](N)C(=O)O; dPhg = N[C@@H](C(=O)O)c1ccccc1

Key:
[1] = biological target: T1, Abeta monomers (Homo sapiens, UniProt P05067); test: Peptide microarray, binding of FITC Abeta monomers to immobilized peptides; details: for Binding signal to Abeta monomers: peptide microarray, FITC Abeta, 1 hour at room temperature, control subtracted, averaged; for Binding specificity monomer to fibrils: quotient binding signal to monomers / binding signal to fibrils; for Binding specificity monomer to oligomer: quotient binding signal to monomers / binding signal to oligomers
T1 construct: incubate with FITC Abeta monomers, oligomers, fibrils and FITC for 1 hour at room temperature
T1 sequence (P05067 672-713 limits assumed): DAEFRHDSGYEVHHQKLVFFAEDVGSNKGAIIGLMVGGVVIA
Procedure: (§1) The procedure for identifying peptides that bind specifically to amyloid beta monomer or specifically to amyloid beta oligomers and for determining the binding specificity of peptides within the meaning of the present invention can thus be as follows. Peptide microarrays comprising various peptides immobilized on a surface, such as derivatives of D3, are each incubated with different species of Abeta (such as monomers, oligomers and fibrils) labeled with a fluorescent dye. A peptide microarray is incubated with only the fluorescent dye to serve as the control. So as to ensure the reproducibility of the results, the incubation of the peptide microarrays can be carried out at least three times for each species. The binding of the fluorescence-labeled Abeta to the immobilized peptides is detected by way of the fluorescent dye. The more Abeta binds to the peptide, the higher the fluorescence signal is. The measured fluorescence signals of the reproductions are standardized, and the […]. This avoids binding of the fluorescence-labeled Abeta via the dye. The binding signals of an Abeta species to a peptide are then averaged. So as to determine the binding specificity, the quotient of the species to which the peptide is to specifically bind and another species is found.
(§2) Pretreatment of the peptide microarray slides: • briefly dip 3× in ethanol (96%) and then wash with H2O (30 minutes) • briefly dry by way of centrifuging
(§3) Preparation of monomers and oligomers: • size exclusion chromatography according to Johansson et al. 2006 (Johansson, A.-S. et al. Physiochemical characterization of the Alzheimer's disease-related peptides Aβ1-42Arctic and Aβ1-42 wt. FEBS Journal 273, 2618-2630 (2006)). • oligomers were fractionated at 8-9 ml, monomers at 16-17 ml.
(§4) Carrying out the peptide microarray: • incubate with FITC Abeta monomers, oligomers, fibrils and FITC for 1 hour at room temperature • wash: TBS-T briefly 3× (only TBS-T buffer is replaced), 3×10 minutes in a flacon, 3×H2O, 3×10 minutes • dry by way of centrifugation • The binding of the fluorescence-labeled Abeta to the immobilized peptides is detected by way of the fluorescent dye using the microarray reader FLA800 from Fuji Film. The more Abeta binds to the peptide, the higher is the fluorescence signal. • carrier set mode: slides • resolution: 10 μm • scan mode: high sensitivity (slow): scan pixel at 200 mm/s • laser: 473 nm • filter: 530 DF 20 • photomultiplier tube (PMT) HV (%): 100 • images were stored as .tif files
(§5) The software, AIDA Metrix, from Raytest was used to evaluate the fluorescence signals:
(§6) To ensure the reproducibility of the results, the incubation of the peptide microarrays is carried out at least three times for each species.
(§7) The measured fluorescence signals of the reproductions are standardized using a median-based standardization, and the control was subtracted from the signal. This avoided the binding of the fluorescence-labeled Abeta via the dye.
(§8) The binding signals of an Abeta species to a peptide were averaged.
So as to determine the binding specificity, the quotient of the species to which the peptide is to specifically bind and another species is created.
Example: binding specificity of peptide X to Abeta monomers=binding signal of peptides X to monomers/binding signal of peptides X to oligomers.

[2] = biological target: T2, Abeta oligomers (Homo sapiens, UniProt P05067); test: Peptide microarray, binding of FITC Abeta oligomers to immobilized peptides; details: 1 hour at room temperature, control subtracted, averaged
T2 sequence (P05067 672-713 limits assumed): as above
Procedure: as §1, §2, §3, §4, §5, §6, §7, §8

[3] = biological target: T3, Abeta fibrils (Homo sapiens, UniProt P05067); test: Peptide microarray, binding of FITC Abeta fibrils to immobilized peptides; details: 1 hour at room temperature, control subtracted, averaged
T3 construct: Pre-incubated Abeta was co-incubated with the peptides
T3 sequence (P05067 672-713 limits assumed): as above
Procedure: as §1, §2
Preparation of fibrils: • incubate Abeta over 3 days, centrifuge, discard supernatant and resuspend in buffer (repeat 3 times)
as §4, §5, §6, §7, §8

[4] = biological target: T2, Abeta oligomers; test: QIAD method, elimination of Abeta oligomers (density gradient centrifugation, RP-HPLC); type: biochemical; details: ratio of Abeta to peptide of 8:1, fractions 4-6, FIG. 2
Procedure: Using the QIAD method for the quantitative characterization of amyloid peptides and/or proteins in a sample, it was possible to quantify the properties of the substances. Pre-incubated Abeta was co-incubated with the peptides. The different Abeta species were separated by way of density gradient centrifugation and quantified in the individual fractions by way of RP-HPLC Abeta. The elimination of the Abeta oligomers in fractions 4-6 was analyzed.

[5] = biological target: T3, Abeta fibrils; test: ThT assay, formation of ThT positive Abeta fibrils; type: biochemical; details: 48 hours, co-incubation with Abeta, FIG. 3

Substance | Binding signal to Abeta monomers [1] | Binding specificity monomer to fibrils [1] | Binding specificity monomer to oligomer [1] | Binding signal to Abeta oligomers [2] | Binding signal to Abeta fibrils [3] | Elimination of Abeta oligomers [4] | ThT fluorescence during the entire measuring time period [5]
rkr07rlvtkrnr (H-[dR][dK][dR][d(hArg)][dR][dL][dV][dT][dK][dR][dN][dR]-NH2; SMILES CC(C)C[C@@H](NC(=O)[C@@H](CCCNC(=N)N)NC(=O)[C@@H](CCCCNC(=N)N)NC(=O)[C@@H](CCCNC(=N)N)NC(=O)[C@@H](CCCCN)NC(=O)[C@H](N)CCCNC(=N)N)C(=O)N[C@@H](C(=O)N[C@@H](C(=O)N[C@H](CCCCN)C(=O)N[C@H](CCCNC(=N)N)C(=O)N[C@H](CC(N)=O)C(=O)N[C@H](CCCNC(=N)N)C(N)=O)[C@H](C)O)C(C)C) [ANK16, D3 derivative; 07: D-Homoarginine] | 11.9 rfu | 8.1 | 8.6 | 1.4 rfu | 1.5 rfu |  | 
rkrirl06yhikr (H-[dR][dK][dR][dI][dR][dL][dPhg][dY][dH][dI][dK][dR]-NH2; SMILES CC[C@@H](C)[C@@H](NC(=O)[C@@H](Cc1c[nH]cn1)NC(=O)[C@@H](Cc1ccc(O)cc1)NC(=O)[C@H](NC(=O)[C@@H](CC(C)C)NC(=O)[C@@H](CCCNC(=N)N)NC(=O)[C@H](NC(=O)[C@@H](CCCNC(=N)N)NC(=O)[C@@H](CCCCN)NC(=O)[C@H](N)CCCNC(=N)N)[C@H](C)CC)c1ccccc1)C(=O)N[C@H](CCCCN)C(=O)N[C@H](CCCNC(=N)N)C(N)=O) [ANK17, D3 derivative; 06: Phenylglycine (D)] | 4.7 rfu | 2.5 | 4.8 | 1.0 rfu | 1.9 rfu |  | 
rkrirl06yhinr (H-[dR][dK][dR][dI][dR][dL][dPhg][dY][dH][dI][dN][dR]-NH2; SMILES CC[C@@H](C)[C@@H](NC(=O)[C@@H](Cc1c[nH]cn1)NC(=O)[C@@H](Cc1ccc(O)cc1)NC(=O)[C@H](NC(=O)[C@@H](CC(C)C)NC(=O)[C@@H](CCCNC(=N)N)NC(=O)[C@H](NC(=O)[C@@H](CCCNC(=N)N)NC(=O)[C@@H](CCCCN)NC(=O)[C@H](N)CCCNC(=N)N)[C@H](C)CC)c1ccccc1)C(=O)N[C@H](CC(N)=O)C(=O)N[C@H](CCCNC(=N)N)C(N)=O) [ANK2, D3 derivative; 06: Phenylglycine (D)] | 5.6 rfu | 7.1 | 3.4 | 1.6 rfu | 0.8 rfu | 54±7% | remains at the level of the first measured value
rkrirl06yhwnr (H-[dR][dK][dR][dI][dR][dL][dPhg][dY][dH][dW][dN][dR]-NH2; SMILES CC[C@@H](C)[C@@H](NC(=O)[C@@H](CCCNC(=N)N)NC(=O)[C@@H](CCCCN)NC(=O)[C@H](N)CCCNC(=N)N)C(=O)N[C@H](CCCNC(=N)N)C(=O)N[C@H](CC(C)C)C(=O)N[C@@H](C(=O)N[C@H](Cc1ccc(O)cc1)C(=O)N[C@H](Cc1c[nH]cn1)C(=O)N[C@H](Cc1c[nH]c2ccccc12)C(=O)N[C@H](CC(N)=O)C(=O)N[C@H](CCCNC(=N)N)C(N)=O)c1ccccc1) [ANK3, D3 derivative; 06: Phenylglycine (D)] | 3.6 rfu | 21.9 | 6.5 | 0.6 rfu | 0.2 rfu | 62±10% | remains at the level of the first measured value
rkrirlvyhinr (H-[dR][dK][dR][dI][dR][dL][dV][dY][dH][dI][dN][dR]-NH2; SMILES CC[C@@H](C)[C@@H](NC(=O)[C@@H](Cc1c[nH]cn1)NC(=O)[C@@H](Cc1ccc(O)cc1)NC(=O)[C@H](NC(=O)[C@@H](CC(C)C)NC(=O)[C@@H](CCCNC(=N)N)NC(=O)[C@H](NC(=O)[C@@H](CCCNC(=N)N)NC(=O)[C@@H](CCCCN)NC(=O)[C@H](N)CCCNC(=N)N)[C@H](C)CC)C(C)C)C(=O)N[C@H](CC(N)=O)C(=O)N[C@H](CCCNC(=N)N)C(N)=O) [ANK1, D-enantiomeric 12-mer peptide derived from D3] | 6.6 rfu | 5.1 | 3.5 | 1.9 rfu | 1.3 rfu | 51±6% | remains at the level of the first measured value
rpr07rlhtkkkr (H-[dR][dP][dR][d(hArg)][dR][dL][dH][dT][dK][dK][dK][dR]-NH2; SMILES CC(C)C[C@@H](NC(=O)[C@@H](CCCNC(=N)N)NC(=O)[C@@H](CCCCNC(=N)N)NC(=O)[C@@H](CCCNC(=N)N)NC(=O)[C@H]1CCCN1C(=O)[C@H](N)CCCNC(=N)N)C(=O)N[C@H](Cc1c[nH]cn1)C(=O)N[C@@H](C(=O)N[C@H](CCCCN)C(=O)N[C@H](CCCCN)C(=O)N[C@H](CCCCN)C(=O)N[C@H](CCCNC(=N)N)C(N)=O)[C@H](C)O) [ANK18, D3 derivative; 07: D-Homoarginine] | 1.2 rfu | 9.4 | 7.0 | 0.2 rfu | 0.1 rfu |  | 
rprvrl06yhwnr (H-[dR][dP][dR][dV][dR][dL][dPhg][dY][dH][dW][dN][dR]-NH2; SMILES CC(C)C[C@@H](NC(=O)[C@@H](CCCNC(=N)N)NC(=O)[C@H](NC(=O)[C@@H](CCCNC(=N)N)NC(=O)[C@H]1CCCN1C(=O)[C@H](N)CCCNC(=N)N)C(C)C)C(=O)N[C@@H](C(=O)N[C@H](Cc1ccc(O)cc1)C(=O)N[C@H](Cc1c[nH]cn1)C(=O)N[C@H](Cc1c[nH]c2ccccc12)C(=O)N[C@H](CC(N)=O)C(=O)N[C@H](CCCNC(=N)N)C(N)=O)c1ccccc1) [ANK15, D3 derivative; 06: Phenylglycine (D)] | 1.3 rfu | 12.2 | 2.2 | 0.6 rfu | 0.1 rfu |  | 
